Experimental data from US8580556B2, “Sulfonylurea-responsive repressor proteins” (E. I. du Pont de Nemours and Company, priority 2008, dated 2013).
Residue numbers refer to the chain shown, from its start.

B1: L6-1B03 (protein)
chain: MGSRLDKSKVINSALELLNEVGIEGLTTRKLAQKLGVEQPTLYWHVKNKRALLDALAIEMMDRHATHICPLEGESWQDFLRNNAKSMRCALLSHRDGAKVCLGTRWTEQQYEAAENMLAFLCQQGFSLENALYAVSAVRVFTLGCVLFDQESQVAKEERETPTTASMPPLLRQAWELKDHQGAEPAFLFGLELIICGLEKQLKCESGS
modifications: Sulfonylurea responsive repressor L6-1B03
B2: L6-5H12 (protein)
chain: B1 chain with I68Y, Q109K, A113T, M117Q, V135M, S152L, L171V
modifications: Sulfonylurea responsive repressor L6-5H12
B3: L6-4D10 (protein)
chain: B1 chain with A65Q, I68Y, Q109K, A113S
modifications: Sulfonylurea responsive repressor L6-4D10
B4: L6-2D07 (protein)
chain: B1 chain with A65Q, I68F, N83T, A113T, V135M, L171V
modifications: Sulfonylurea responsive repressor L6-2D07
B5: L6-5F05 (protein)
chain: B1 chain with M117Q, S152L
modifications: Sulfonylurea responsive repressor L6-5F05
B6: L6-3H02: SuR polypeptide, SEQ ID NO: 94 (protein)
chain: B1 chain with I68Y, N83T, Q110H, A113S, L171V, D179V
modifications: Sulfonylurea responsive repressor L6-3H02
B7: L6-6F07 (protein)
chain: B1 chain with I68L, N83T, A113S, V135M
modifications: Sulfonylurea responsive repressor L6-6F07
B8: L6-2C09 (protein)
chain: B1 chain with A65Q, I68Y, N83T, Q110L, A113T, M117Q, V135M, S152L
modifications: Sulfonylurea responsive repressor L6-2C09
B9: L6-5H06 (protein)
chain: B1 chain with A65Q, Q109K, A113T, S152L, L171V
modifications: Sulfonylurea responsive repressor L6-5H06
B10: L6-5G06 (protein)
chain: B1 chain with A65Q, I68Y, A113T, M117Q, S152L, A174G
modifications: Sulfonylurea responsive repressor L6-5G06
B11: L1-33: library L1 reverse repressor hit (SEQ ID NO: 1206-1213) (protein)
chain: MGSRLDKSKVINSALELLNEVGIEGLTTRKLAQKLGVEQPTLYWHVKNKRALLDALAIEMLDRHATHFCPLEGESWQDFLRNNAKSMRCALLSHRDGAKVQLGTAATEKQYETLENKLAFLCQQGFSLENALYAHSAVTQFTLGCVLRDQEGQVAKEERETPTTDSMPPLLRQARELRDHQGAEPAFLFGLELIICGLEKQLKCESGS
modifications: rSuR L1-33
B12: L1-25: library L1 reverse repressor hit (SEQ ID NO: 1206-1213) (protein)
chain: MGSRLDKSKVINSALELLNEVGIEGLTTRKLAQKLGVEQPTLYWHVKNKRALLDALAIEMLDRHATHFCPLEGESWQDFLRNTAKSMRCALLSHRDGAKVLLGTATTEKQYETLENLLAFLYQQGFSLENALYAWQAVWRFTLGCVLIDQETQVAKEERETPTTDSMPPLLRQAVELKDHQGAEPAFLFGLELIICGLEKQLKCETGS
modifications: rSuR L1-25
B13: L1-34: library L1 reverse repressor hit (SEQ ID NO: 1206-1213) (protein)
chain: MGSRLDKSKVINSALELLNEVGIEGLTTRKLAQKLGVEQPTLYWHVKNKRALLDALAIEMADRHNTHFCPLEGESWQDFLRNAARSMRCALLSHRDGAKVYLGTARTEKQYETTENVLAFLCQQGFSLENALYAVRAVPRFTLGCVLLDQERQVAKEERETPTTDSMPPLLRQARELTDHQGAEPAFLFGLELIICGLEKQLKCESGS
modifications: rSuR L1-34

The molecules below were run on tetA promoter (PtetA)-lacZ reporter in E. coli KM3. Conditions: not given.
Assay type: cell-based
In the case of B1, the “0.2 ppm 48 hr/Control 84 hr” value is reported as 4.6. B2 was tested, and the “0.2 ppm 48 hr/Control 84 hr” value was 4.2. B3 was tested, and the “0.2 ppm 48 hr/Control 84 hr” value was 3.7. With B4 the “0.2 ppm 48 hr/Control 84 hr” value was 3.4. With B5 the “0.2 ppm 48 hr/Control 84 hr” value was 4.1. With B6 the “0.2 ppm 48 hr/Control 84 hr” value was 2.8. For B7, the “0.2 ppm 48 hr/Control 84 hr” value was 2.3. With B8 the “0.2 ppm 48 hr/Control 84 hr” value was 2.6. In the case of B9, the “0.2 ppm 48 hr/Control 84 hr” value is reported as 2.7. With B10 the “0.2 ppm 48 hr/Control 84 hr” value was 4.9.

Same assay, conditions: M9 assay plates, 0.2 ppm chlorsulfuron as inducer, 48 hr at 30° C., colony color intensity by ImageJ
B1 was tested, and the “0.2 ppm 48 hr (colony color intensity, induction by chlorsulfuron)” value was 30.0. With B4 the “0.2 ppm 48 hr (colony color intensity, induction by chlorsulfuron)” value was 20.0. In the case of B5, the “0.2 ppm 48 hr (colony color intensity, induction by chlorsulfuron)” value is reported as 22.0.

Same assay, conditions: M9 assay plates, no inducer, 84 hr at 30° C., colony color intensity by ImageJ
B1 was tested, and the “Control 84 hr (colony color intensity, background activity without inducer)” value was 6.6. B2 was tested, and the “Control 84 hr (colony color intensity, background activity without inducer)” value was 5.7. B3 was tested, and the “Control 84 hr (colony color intensity, background activity without inducer)” value was 5.0. For B4, the “Control 84 hr (colony color intensity, background activity without inducer)” value was 5.8. B5 was tested, and the “Control 84 hr (colony color intensity, background activity without inducer)” value was 5.4. With B6 the “Control 84 hr (colony color intensity, background activity without inducer)” value was 5.6. With B7 the “Control 84 hr (colony color intensity, background activity without inducer)” value was 5.1. With B8 the “Control 84 hr (colony color intensity, background activity without inducer)” value was 5.2. For B9, the “Control 84 hr (colony color intensity, background activity without inducer)” value was 5.1. For B10, the “Control 84 hr (colony color intensity, background activity without inducer)” value was 7.0.

Same assay, conditions: Table 6, reverse repressor hits; anhydrotetracycline
B11 was tested, and the “relative β-galactosidase activity, inducer atc” value was 8.25. In the case of B12, the “relative β-galactosidase activity, inducer atc” value is reported as 1.22. With B13 the “relative β-galactosidase activity, inducer atc” value was 3.68.

Same assay, conditions: Table 6, reverse repressor hits; chlorimuron, same plate assay format as Table 4
In the case of B11, the “relative β-galactosidase activity, inducer Ci” value is reported as 0.76. B12 was tested, and the “relative β-galactosidase activity, inducer Ci” value was 0.11. In the case of B13, the “relative β-galactosidase activity, inducer Ci” value is reported as 0.43.

Same assay, conditions: Table 6, reverse repressor hits; chlorsulfuron, same plate assay format as Table 4
With B11 the “relative β-galactosidase activity, inducer Cs” value was 3.74. For B12, the “relative β-galactosidase activity, inducer Cs” value was 0.28. In the case of B13, the “relative β-galactosidase activity, inducer Cs” value is reported as 0.85.

Same assay, conditions: Table 6, reverse repressor hits; ethametsulfuron, same plate assay format as Table 4
For B11, the “relative β-galactosidase activity, inducer Es” value was 2.11. For B12, the “relative β-galactosidase activity, inducer Es” value was 0.13. In the case of B13, the “relative β-galactosidase activity, inducer Es” value is reported as 1.33.

Same assay, conditions: Table 6, reverse repressor hits; metsulfuron, same plate assay format as Table 4
With B11 the “relative β-galactosidase activity, inducer Ms” value was 4.29. In the case of B12, the “relative β-galactosidase activity, inducer Ms” value is reported as 0.32. For B13, the “relative β-galactosidase activity, inducer Ms” value was 1.47.

Same assay, conditions: Table 6, reverse repressor hits; nicosulfuron, same plate assay format as Table 4
B11 was tested, and the “relative β-galactosidase activity, inducer Ns” value was 5.34. In the case of B12, the “relative β-galactosidase activity, inducer Ns” value is reported as 1.21. With B13 the “relative β-galactosidase activity, inducer Ns” value was 2.91.

Same assay, conditions: Table 6, reverse repressor hits; no inducer
In the case of B11, the “relative β-galactosidase activity, inducer Blank” value is reported as 7.59. B12 was tested, and the “relative β-galactosidase activity, inducer Blank” value was 1.17. For B13, the “relative β-galactosidase activity, inducer Blank” value was 2.37.

Same assay, conditions: Table 6, reverse repressor hits; rimsulfuron, same plate assay format as Table 4
In the case of B11, the “relative β-galactosidase activity, inducer Rs” value is reported as 10.32. With B12 the “relative β-galactosidase activity, inducer Rs” value was 1.08. In the case of B13, the “relative β-galactosidase activity, inducer Rs” value is reported as 2.30.

Same assay, conditions: Table 6, reverse repressor hits; sulfometuron, same plate assay format as Table 4
B11 was tested, and the “relative β-galactosidase activity, inducer Sm” value was 5.02. B12 was tested, and the “relative β-galactosidase activity, inducer Sm” value was 0.63. For B13, the “relative β-galactosidase activity, inducer Sm” value was 2.00.

Same assay, conditions: Table 6, reverse repressor hits; thifensulfuron, same plate assay format as Table 4
For B11, the “relative β-galactosidase activity, inducer Ts” value was 5.51. For B12, the “relative β-galactosidase activity, inducer Ts” value was 0.64. For B13, the “relative β-galactosidase activity, inducer Ts” value was 2.97.

Same assay, conditions: Table 6, reverse repressor hits; tribenuron, same plate assay format as Table 4
B11 was tested, and the “relative β-galactosidase activity, inducer Tb” value was 4.71. With B12 the “relative β-galactosidase activity, inducer Tb” value was 1.72. With B13 the “relative β-galactosidase activity, inducer Tb” value was 2.26.
